Measurements taken from IntAct's records for PubMed 29039417.

B1: BBSome complex member BBS2 (Homo sapiens), Q9BXC9 (parent)
chain: MLLPVFTLKLRHKISPRMVAIGRYDGTHPCLAAATQTGKVFIHNPHTRNQHVSASRVFQSPLESDVSLLSINQAVSCLTAGVLNPELGYDALLVGTQTNLLAYDVYNNSDLFYREVADGANAIVLGTLGDISSPLAIIGGNCALQGFNHEGSDLFWTVTGDNVNSLALCDFDGDGKKELLVGSEDFDIRVFKEDEIVAEMTETEIVTSLCPMYGSRFGYALSNGTVGVYDKTSRYWRIKSKNHAMSIHAFDLNSDGVNELITGWSNGKVDARSDRTGEVIFKDNFSSAIAGVVEGDYRMDGHIQLICCSVDGEIRGYLPGTAEMRGNLMDTSAEQDLIRELSQKKQNLLLELRNYEENAKAELASPLNEADGHRGIIPANTRLHTTLSVSLGNETQTAHTELRISTSNDTIIRAVLIFAEGIFTGESHVVHPSIHNLSSSICIPIVPPKDVPVDLHLKAFVGYRSSTQFHVFESTRQLPRFSMYALTSLDPASEPISYVNFTIAERAQRVVVWLGQNFLLPEDTHIQNAPFQVCFTSLRNGGHLHIKIKLSGEITINTDDIDLAGDIIQSMASFFAIEDLQVEADFPVYFEELRKVLVKVDEYHSVHQKLSADMADHSNLIRSLLVGAEDARLMRDMKTMKSRYMELYDLNRDLLNGYKIRCNNHTELLGNLKAVNQAIQRAGRLRVGKPKNQVITACRDAIRSNNINTLFKIMRVGTASS
partner: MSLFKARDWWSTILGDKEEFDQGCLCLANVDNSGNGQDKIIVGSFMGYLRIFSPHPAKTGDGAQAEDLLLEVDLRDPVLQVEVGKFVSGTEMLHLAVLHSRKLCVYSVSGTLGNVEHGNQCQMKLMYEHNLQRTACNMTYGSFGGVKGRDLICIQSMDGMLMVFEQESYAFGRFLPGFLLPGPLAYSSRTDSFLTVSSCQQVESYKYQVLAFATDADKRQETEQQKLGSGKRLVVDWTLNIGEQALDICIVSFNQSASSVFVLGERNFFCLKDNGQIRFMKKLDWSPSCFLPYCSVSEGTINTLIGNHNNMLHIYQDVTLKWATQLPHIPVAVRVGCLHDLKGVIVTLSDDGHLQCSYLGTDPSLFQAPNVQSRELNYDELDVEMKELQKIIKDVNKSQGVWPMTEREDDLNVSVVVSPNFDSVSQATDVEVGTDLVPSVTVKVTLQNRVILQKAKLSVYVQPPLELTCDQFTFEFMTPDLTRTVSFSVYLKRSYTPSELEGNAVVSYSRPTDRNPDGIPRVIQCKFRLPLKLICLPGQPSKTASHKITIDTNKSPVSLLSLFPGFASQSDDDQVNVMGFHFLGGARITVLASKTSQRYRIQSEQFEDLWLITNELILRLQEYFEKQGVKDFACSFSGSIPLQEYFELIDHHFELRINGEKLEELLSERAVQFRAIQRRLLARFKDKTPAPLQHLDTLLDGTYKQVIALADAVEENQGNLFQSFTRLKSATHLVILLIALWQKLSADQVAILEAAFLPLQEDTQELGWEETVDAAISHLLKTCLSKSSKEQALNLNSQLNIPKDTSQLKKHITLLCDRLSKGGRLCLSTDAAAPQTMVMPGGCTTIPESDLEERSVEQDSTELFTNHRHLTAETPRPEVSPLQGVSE

Variants of: B1
Conditions: with pthb1_human BBS9, Q3SYG4

Row | Variant | effect of a mutation on the interaction
1 | A576E | with no effect
2 | F574K | with no effect
3 | F574A | with no effect
4 | F574E | with no effect
5 | A612K | with no effect
6 | I561F | disrupting interaction strength
7 | D560A | disrupting interaction strength
8 | L610A | with no effect
9 | L610E | with no effect
10 | L610K | with no effect
11 | S611A | with no effect
12 | S611K | with no effect
13 | R622A | with no effect
14 | L597E | with no effect
15 | M571K | with no effect
16 | M571A | with no effect
17 | V600E | with no effect
18 | T558E | with no effect
19 | Q608A | with no effect
20 | Q608E | with no effect
21 | D562A | disrupting interaction strength
22 | D562V | disrupting interaction strength

Row | Variant | effect of a mutation on the interaction
23 | D562E | with no effect
24 | I577E | with no effect
25 | I577K | with no effect
26 | V598A | with no effect
27 | D566A | with no effect
28 | L563E | with no effect
29 | L563K | with no effect
30 | D559A | with no effect
31 | H604A | with no effect
32 | H604E | with no effect
33 | I567K | with no effect
34 | Q569E | with no effect
35 | I621E | with no effect
36 | I621A | with no effect
37 | Y603A | with no effect
38 | V606K | with no effect
39 | V606A | with no effect
40 | E591A | with no effect
41 | N619E | with no effect
42 | D601E | with no effect
43 | D601K | with no effect
44 | F586K | with no effect

Row | Variant | effect of a mutation on the interaction
45 | Q581E | with no effect
46 | A564E | with no effect
47 | P587K | with no effect
48 | P587E | with no effect
49 | S605K | with no effect
50 | F575E | with no effect
51 | F575K | with no effect
52 | L620E | with no effect
53 | A615K | with no effect
54 | S618K | with no effect
55 | S573K | with no effect
56 | S573A | with no effect
57 | E583A | with no effect
58 | E583K | with no effect
59 | A572E | with no effect
60 | I568A | with no effect
61 | L593A | with no effect
62 | V588E | with no effect
63 | D585K | with no effect
64 | V596K | with no effect
65 | M614A | with no effect
66 | M614K | with no effect

Row | Variant | effect of a mutation on the interaction
67 | R594E | with no effect
68 | R594K | with no effect
69 | R594A | with no effect
70 | L580K | with no effect
71 | L580E | with no effect
72 | L580A | with no effect
73 | E578A | with no effect
74 | E578K | with no effect
75 | E602A | with no effect
76 | H607K | with no effect
77 | A584K | with no effect
78 | N557A | with no effect
79 | K599E | with no effect
80 | H617E | with no effect
81 | H617A | with no effect
82 | G565K | with no effect
83 | G565E | with no effect
84 | G565A | with no effect
85 | S570K | with no effect
86 | S570L | disrupting interaction strength
87 | F590A | with no effect

The remaining lines, values ahead:

Row | effect of a mutation on the interaction | Variant
88 | with no effect | A576K
89 | with no effect | Y589A
90 | with no effect | Y589K
91 | with no effect | Y589E
92 | with no effect | A612E
93 | with no effect | I561A
94 | with no effect | I561E
95 | with no effect | I561K
96 | with no effect | D560K
97 | with no effect | D560E
98 | with no effect | S611E
99 | with no effect | R622E
100 | with no effect | L597A
101 | with no effect | L597K
102 | with no effect | M571E
103 | with no effect | V600K
104 | with no effect | V600A
105 | with no effect | T558A
106 | with no effect | T558K
107 | with no effect | Q608K
108 | with no effect | D562K
109 | with no effect | I577A
110 | with no effect | V598K
111 | with no effect | V598E
112 | with no effect | D616A

Row | effect of a mutation on the interaction | Variant
113 | with no effect | D616K
114 | with no effect | D616E
115 | with no effect | D566K
116 | with no effect | D566E
117 | with no effect | L563A
118 | with no effect | D559K
119 | with no effect | D559E
120 | with no effect | K609A
121 | with no effect | K609E
122 | with no effect | H604K
123 | with no effect | I567A
124 | with no effect | I567E
125 | with no effect | Q569A
126 | with no effect | Q569K
127 | with no effect | I621K
128 | with no effect | Y603K
129 | with no effect | Y603E
130 | with no effect | V606E
131 | with no effect | E591K
132 | with no effect | N619K
133 | with no effect | N619A
134 | with no effect | D601A
135 | with no effect | F586A
136 | with no effect | F586E
137 | with no effect | Q581A

Row | effect of a mutation on the interaction | Variant
138 | with no effect | Q581K
139 | with no effect | D579E
140 | with no effect | D579K
141 | with no effect | D579A
142 | with no effect | A564K
143 | with no effect | P587A
144 | with no effect | S605E
145 | with no effect | S605A
146 | with no effect | F575A
147 | with no effect | L620A
148 | with no effect | L620K
149 | with no effect | A615E
150 | with no effect | S618A
151 | with no effect | S618E
152 | with no effect | S573E
153 | with no effect | A572K
154 | with no effect | I568K
155 | with no effect | L593E
156 | with no effect | L593K
157 | with no effect | K595E
158 | with no effect | K595A
159 | with no effect | V588A
160 | with no effect | V588K
161 | with no effect | D585A
162 | with no effect | D585E

Row | effect of a mutation on the interaction | Variant
163 | with no effect | V596E
164 | with no effect | V596A
165 | with no effect | M614E
166 | with no effect | E602K
167 | with no effect | E592K
168 | with no effect | E592A
169 | with no effect | H607E
170 | with no effect | H607A
171 | with no effect | A584E
172 | with no effect | N557E
173 | with no effect | N557K
174 | with no effect | K599A
175 | with no effect | V582K
176 | with no effect | V582E
177 | with no effect | V582A
178 | with no effect | H617K
179 | with no effect | S570A
180 | with no effect | S570E
181 | with no effect | D613A
182 | with no effect | D613E
183 | with no effect | D613K
184 | with no effect | F590E
185 | with no effect | F590K
